Measured values: patent US9744220B2, “Compositions and methods for treating inflammatory diseases” (priority 2013, dated 2017)

What was measured:
[1] = tested on: cardiac and hepatic stem cell markers; test: Intravenous sPDNF into naïve mice, stem cell markers by real time PCR; format: in vivo; details: independently of TLR signaling
Method: FIG. 2A is a graph showing stem cell marker expression in mice administered sPDNF. One set of three wild type C57BL/6 mice received intravenous (IV) PBS without (PBS) or with sPDNF (2 mg/kg) at 0, 3 and 24 hours (sPDNF 1d), and a second set IV sPDNF (2 mg/kg) for 6 days (sPDNF 6d). Mice were sacrificed 3 hr post injection and the indicated stem cells markers were quantified in the ventricles by real time PCR, and normalized to HPRT; *, p<0.05, **, p<0.001, ***, p<0.0001; SCF, stem cell factor, ns, not significant. FIG. 2B is a graph showing stem cell marker expression in MyD88^−/− mice administered sPDNF. TLR-deficient MyD88^−/− mice (C57BL/6 background) (2/group) were injected IV with a single dose of sPDNF (2 mg/kg), sacrificed at 3 hours post-injection, and the indicated cardiac stem cell markers assessed by qPCR. […] Cardiac Sca-1 and SCF transcripts were quantified by qPCR; **, P<0.001; ***, P<0.0005. FIG. 2D is a graph showing quantitation of Sca-1 expression in various organs of mice administered sPDNF. C57BL/6 mice (3 per group), average of two experiments) were injected IV with sPDNF at 4 mg/kg body weight or PBS, sacrificed 3 hours later, and Sca-1 mRNA quantified by qPCR in the liver, heart, colon and bone marrow (*, P<0.05, **, P<0.001; ns, not significant; dotted line represents Sca-1 mRNA of vehicle-treated mice set at 1.0, data are representative of 2 experiments. […]

H9c2 cardiomyocytes = test: sPDNF stimulation of H9c2 cardiomyocytes, secretion by ELISA; format: cell-based, rat; details: H9c2, 3 hr
Method: FIG. 8A is a graph showing dose-response of MCP-1 secretion to sPDNF stimulation. H9c2 cardiomyocytes were plated in 6-well plates, grown in low serum (0.1% FCS) overnight, and stimulated with the indicated doses of sPDNF for 3 hr. Secretion of MCP-1, MIP-2α and IL-6 was determined by ELISA. FIG. 8B is a graph showing dose-response of MCP-transcript expression. H9c2 cardiomyocytes were plated in 6-well plates, grown in low serum (0.1%) overnight, and stimulated with the indicated doses of sPDNF for 3 hr, and MCP-transcript quantified by qPCR. Chemokine gene expression was normalized to HPRT and fold change calculated relative to vehicle-treated cells. Points represent mean±SD fold change expression of triplicate samples; *P<0.05, **P<0.01, and ***P<0.005. FIG. 8C is a graph showing time course of MCP-1 and FKN transcripts expression. H9c2 cardiomyocytes were plated in 6-well plates (triplicate), grown in low serum (0.1%) overnight, stimulated with sPDNF (1 μg/ml) for the indicated times, and MCP-1 and FKN (data not shown) transcripts quantified by qPCR. Three experiments gave similar results.
Primary cardiomyocytes and cardiac fibroblasts, and H9c2 cardiomyocytes were seeded at 6-8×10^4 cells per well in DMEM/10% FCS and allowed to adhere overnight, serum starved (DMEM/0.1% FCS overnight), and treated with sPDNF (0.5 ng/ml-8 μg/ml, 0-16 h). Cell supernatants were collected and stored at −80° C. and cell monolayers rinsed with PBS and collected in Trizol for qPCR analysis.
MCP-1: 96-well Maxisorp plates (Nunc) were coated overnight with relevant supernatants or MCP-1 standards (R&D Systems, 479-JE/CF) in coating buffer (50 mM NaHCO3/Na2CO3, pH 9.6, 0.02% NaN3), blocked in 5% BSA/PBST, reacted with a MCP-1 detection antibody (Santa Cruz, SC-28879; 1:200; 2 hr), and then alkaline-phosphatase (AP) conjugated secondary antibody (Sigma A3687; 1:1000; 1 hr). Between each step, plates were washed 2-4 times with PBST. […] MCP-1 concentrations were calculated relative to a 4-parametric standard curve using the SOFTmax Pro program. […]

B1: sPDNF: N-terminal short-form of T cruzi PDNF that contains Trk-binding sites, recombinant; amino acids 1-588 of SEQ ID NO: 2; JR-100 is the commercial name (protein, listed as Trypanosoma cruzi)
chain: MGKTVVVASRMFWLMFFVPLLLAICPSEPAYALAPGSSRVELFKRKNSTVPFEDKAGKVTERVVHSFRLPALVNVDGVMVAIADARYDTSNDNSLIDTVAKYSVDDGETWETQIAIKNSRVSSVSRVVDPTVIVKGNKLYVLVGSYYSSRSYWSSHGDARDWDILLAVGEVTKSTAGGKITASIKWGSPVSLKKFFPAEMEGMHTNQFLGGAGVAIVASNGNLVYPVQVTNKKKQVFSKIFYSEDDGKTWKFGKGRSDFGCSEPVALEWEGKLIINTRVDWKRRLVYESSDMEKPWVEAVGTVSRVWGPSPKSNQPGSQSSFTAVTIEGMRVMLFTHPLNFKGRWLRDRLNLWLTDNQRIYNVGQVSIGDENSAYSSVLYKDDKLYCLHEINTDEVYSLVFARLVGELRIIKSVLRSWKNWDSHLSSICTPADPAASSSESGCGPAVTTVGLVGFLSGNASQNVWEDAYRCVNASTANAERVRNGLKFAGVGGGALWPVSQQGQNQRYRFANHAFTLVASVTIHEAPRAASPLLGASLDSSGGKKLLGLSYDEKHQWQPIYGSTPVTPTGSWETGKRYHLVLTMANKI
For B1, the “expression of cardiac and hepatic stem cell markers” value [1] was “increased expression”, the “secretion of IL-6” value (H9c2 cardiomyocytes) was “did not alter” and the “secretion of macrophage inflammatory protein-2a/MIP-2a/CXCL2” value (H9c2 cardiomyocytes) was “did not alter”. The “secretion of MCP-1” value (H9c2 cardiomyocytes; dose-dependently) was “dramatically increased”.
